From PMC3156817 (Nature Communications, 2011)

B1: ICSM-18 (antibody, V domains shown)
VH: EVQLQQSGPELVKPGSSVKISCKASRNTFTDYNLDWVKQSHGKTLEWIGNVYPNNGVTGYNQKFRGKATLTVDKSSSTAYMELHSLTSEDSAVYYCALYYYDVSYWGQGTLVTVSS
VL: QIVLTQSPAIMSASPGEKVTMTCSASSSVSYMHWYQQKSGTSPKRWIYDTSKLASGVPARFSGSGSGTSYSLTISSMEAEDAATYFCHQWRSNPYTFGGGTKLEIK

Experiments:
huPrP23-231 (human) = huPrP23-231 (human) (UniProt P04156); experiment: DELFIA
huPrP23-231 = huPrP23-231 (Homo sapiens, UniProt P04156); experiment: DELFIA

Row | Molecule | Kd (huPrP23-231 (human)) [nM] | Kd (huPrP23-231) [nM] | Ki (huPrP23-231) [nM]
1 | Aβ-derived diffusible ligands (ADDLs) prepared from Aβ1-42 (from UniProt P05067) (peptide) | 100 | – | –
2 | bADDLs prepared from biotinylated Aβ1-42 (bAβ1-42) (from UniProt P05067) (peptide) | 82 | – | –
3 | B1 | – | ~10 | ~20
